Key:
[1] = tested on: HCV-Luc replicon; assay: HCV-Luc replicon luciferase assay in Huh-7 cells; format: cell-based, hepatitis C virus; details: peptide added to Huh-7 cells containing the replicon; 48 hours
Method: HCV Replicon assays: Huh-7 cells were transiently transfected with replicon RNA having a firefly (P. pyralis) luciferase gene (0.2 μg/well), and with a control plasmid pRL (0.05 μg/well) having a renilla (R. reniformis) luciferase gene, using DMRIEC (Invitrogen) reagent as per the kit protocol (19). The specific additions of pmNS3, mutant replicon, pwt-NS3 etc were done concurrently. The cells were lysed after 48 hours, and luciferase activity detected using the DUAL LUCIFERASE assay kit (Promega) (24, 25).
Trans complementation assays: These assays were performed in the same manner as the regular replicon assays except that in the trans complementation assays two RNA's of different replicons (wild type and the mutant) were added along with a pRL plasmid to control for transfection efficiency.
In vivo the dominant negative mNS3 (pmNS3) down regulates the activity of the HCV-Luc replicon: Huh-7 cells were plated in a 12-well plate at 0.1 million cells per well. […]
The peptide was introduced into Huh-7 cells containing the HCV luciferase replicon. 48 hours after introduction of the peptide, luciferase activity was measured. […]

[2] = tested on: 45:30mer DNA substrate; assay: Steady state DNA unwinding assay; format: biochemical
Method: FIGS. 12A-C. Steady state unwinding activity of mutant versus wild type NS3h. A) The assay for measuring helicase unwinding activity is depicted. A partially duplexed substrate containing 30 bp and 15 nt of ss overhang (45:30mer) was incubated with NS3h in the presence of ATP and Mg^+2 leading to unwinding of the duplex. B) Comparison of unwinding of DNA and RNA substrates by NS3h. Otherwise identical 250 nM duplexed DNA and RNA substrates were incubated with 100 nM NS3h. Reactions were initiated by addition of 5 mM ATP and 10 mM MgCl2 and quenched by addition of 200 mM EDTA/0.7% SDS. C) Unwinding of 250 nM substrate under steady state conditions. Unwinding by 100 nM NS3h (●), NS3h KDA (∘), and NS3h DDDD (▪) occurred at rates of 5.3 nM min^−1, 5.7 nM min^−1, and 4.1 nM min^−1, respectively.
The substrate used was a 45-mer/30-mer containing 30 base pairs of double-stranded DNA with a 15 base 3′ single-stranded overhang. One strand was radiolabeled by incubation with γ-^32P-ATP and T4 polynucleotide kinase at 37° C. for 60 min. Unincorporated ATP was removed by SEPHADEX G-25 filtration. Equimolar amounts of labeled and complementary unlabeled strands were combined, heated to 95° C. for 10 min, and cooled slowly to room temperature to generate the final substrate. For steady state unwinding experiments, 100 nM NS3h was incubated with 250 nM substrate in 25 mM HEPES (pH=7.5), 0.5 mM EDTA, 10 mM MgCl2, 10 mM NaCl, 0.1 mg/ml BSA. Reactions were initiated by addition of 5 mM ATP. Aliquots were taken at specific time points and the reaction was quenched by addition of 200 mM EDTA, 0.7% SDS. Substrate and product were separated by native polyacrylamide gel electrophoresis and detected and quantified by phosphorimaging analysis.

[3] = target: dT15 DNA; assay: DNA binding by fluorescence polarization; details: 37° C.
Method: (§1) FIGS. 10A and B. Binding of mutant NS3h to fluorescein-labeled U20 RNA (FIG. 10A) or dT15 DNA (FIG. 10B). Nucleic acid binding was determined by measuring fluorescence polarization following incubation of protein and nucleic acid at 37° C. Data were fit to a hyperbola using Kaleidagraph software.
(§2) Varying concentrations of NS3h were incubated with 500 pM 5′-fluorescein-labeled rU20 (Integrated DNA Technologies) in 50 mM MOPS-K+(pH 7.0), 10 mM NaCl, 50 μM EDTA, 0.1 mg/ml BSA for 5 minutes at 37° C. Binding was measured as a function of fluorescence polarization using a Beacon fluorescence polarization system. Data were fit to a hyperbola using Kaleidagraph software.

[4] = Coupled ATPase assay stimulated by polyU; format: biochemical; details: saturating polyU
Method: FIG. 11. ATPase activity of mutant NS3h was measured as a function of NADH concentration in a coupled assay at varying concentrations of polyU. Data were fit to a hyperbola using Kaleidagraph software. […] Specific activity of NS3h DDDD (▪) was lower.
NS3h was incubated with 5 mM ATP in 50 mM HEPES (pH=7.5), 5 mM EDTA, 10 mM MgCl2, 10 mM NaCl, 0.1 mg/ml BSA, 4 mM phosphoenolpyruvate, 10 U/ml pyruvate kinase/lactate dehydrogenase, and 0.7 mg/ml NADH. Absorbance of NADH at 380 nm was measured at 1 sec intervals for a period of 30 sec in the presence of the indicated concentrations of poly-U. Hydrolysis rates were calculated using an extinction coefficient of 1,210 M^−1 cm^−1 for NADH. Data were fit to a hyperbola using Kaleidagraph software.

[5] = tested on: 45:30mer DNA substrate; assay: Single turnover DNA unwinding assay (quench-flow, two-step mixing); format: biochemical; details: for single turnover unwinding rate / amplitude for unwinding: 500 nM enzyme; for single turnover unwinding rate: 2 nM substrate, fit to equation 1; for amplitude for unwinding: single turnover
Method: FIG. 14. Single turnover DNA unwinding by NS3h and NS3h mutant enzymes. A two-step mixing technique was used to measure single-turnover unwinding in the presence of excess NS3h. NS3h (500 nM) or mutant enzyme was rapidly mixed with substrate followed by a 10-second incubation. A second, rapid mixing step followed in which ATP, Mg^+2, and protein trap (poly dT) was added. Data were fit according to equation 1 resulting in unwinding rates of 3.1±0.1 s^−1 and 3.7±0.1 s−1 for NS3h (●) and NS3h KDA (♦), respectively. The amplitudes for unwinding were 0.35±0.01 nM and 0.21±0.01 nM for NS3h and NS3h KDA, respectively.
Unwinding assays were carried out using a Quench-Flow apparatus (RQF-3, KinTek Instruments, Austin, Tex.) with a two-step mixing protocol (49). Reactions were carried out in 25 mM MOPS (pH 7.0), 10 mM NaCl, 0.1 mM EDTA (pH 8.0), 2 mM βME, and 0.1 mg/mL BSA at 37° C.; all concentrations are post-mixing. NS3h (500 nM) was mixed with 2 nM DNA substrate (described in steady state section) for 10 seconds before adding 5 mM ATP, 10 mM MgCl2, 60 nM annealing trap (complementary to the displaced strand), and 100 μM poly-dT protein trap. The reaction was quenched after 0.1-15 seconds by ejection into a tube containing 200 mM EDTA, 0.7% SDS. Double- and single-stranded DNA were resolved on a native 20% polyacrylamide gel. The radiolabeled substrate and product were detected using a PHOSPHORIMAGER (Molecular Dynamics, Sunnyvale, Calif.); quantitation was performed with IMAGEQUANT software. The ratio of single- to double-stranded DNA was determined and plotted as a function of time. Data were fit to Equation 1, using KALEIDAGRAPH (Synergy Software, Reading, Pa.). This equation describes a 5-step mechanism for DNA unwinding that is necessary to fit the substantial lag phase associated with unwinding of the substrate (49, 52, 53). A{1−[1+kobst+1/2 (kobst)^2+1/6 (kobst)^3+1/24(kobst)^4]e^−kobs^t} Eq. 1 Results Crystallization and Structural Analysis of NS3h Bound to (dU)16

[6] = target: fluorescein-labeled U20 RNA; assay: RNA binding assay by fluorescence polarization; details: 37° C.
Method: as §1, §2

[7] = tested on: partial duplex DNA substrate (15 nt single stranded, 30 base pairs); assay: ATP-independent DNA unwinding assay; format: biochemical; details: 500 nM enzyme, excess over substrate, no ATP, 37° C.
Method: FIG. 13. Graph showing ATP-independent unwinding activity of NS3h wild-type, NS3h KDA, and NS3h DDDD. NS3h, 500 nM, was incubated with a partial duplex DNA substrate containing 15 nt of single stranded DNA and 30 base pairs at 37° C. Aliquots were quenched by addition of 100 μM poly dT and 60 nM of a 30mer oligonucleotide that served to prevent reannealing. ssDNA was separated from dsDNA by native polyacrylamide electrophoresis and the resulting fractions were quantified by using IMAGEQUANT software. DNA melting is shown for NS3h (●), NS3h KDA (♦), and NS3h DDDD (▪).
NS3h or NS3h mutant enzymes (500 nM) were mixed with 2 nM DNA substrate (described in steady state section) in 25 mM MOPS (pH 7.0), 10 mM NaCl, 0.1 mM EDTA (pH 8.0), 2 mM βME, and 0.1 mg/mL BSA at 37° C. Aliquots were transferred to a ‘quench solution’ containing 200 mM EDTA, 0.7% SDS, 5 mM ATP, 10 mM MgCl2, 60 nM annealing trap, and 100 μM poly-dT protein trap. Double- and single-stranded DNA were resolved on a native 20% polyacrylamide gel. The radiolabeled substrate and product were detected using a PHOSPHORIMAGER (Molecular Dynamics, Sunnyvale, Calif.); quantitation was performed with IMAGEQUANT software. The ratio of single- to double-stranded DNA was determined and plotted as a function of time.

[8] = 100 nM enzyme, 250 nM substrate

Molecule | luciferase activity of HCV luciferase replicon after peptide [1] | steady state unwinding rate [2, 8] | steady state unwinding rate ([2]; 45:30mer DNA, steady state conditions) | Kd [3] | ATPase specific activity [4] | single turnover unwinding rate [5] | fraction of 45:30mer unwound ([5]; same substrate, same conditions for both forms (unpublished data)) | amplitude for unwinding [5] | Kd [6] | ATP-independent unwinding [7]
HIDAHFLSQTK-GGG-YARAAARQARA (HIDAHFLSQTKGGGYARAAARQARA; NS3-oligomerization inhibitor peptide with cell entry peptide) [HCV inhibitor peptide, 25 amino acid peptide: NS3 residues 541-551, three-glycine linker, peptide transduction domain …] | strongly reduced the luciferase activity |  |  |  |  |  |  |  |  | 
NS3h: wild type HCV NS3 helicase domain, expressed and purified independently of NS3 protease (protein) AVDFVPVESMETTMRSPVFTDNSSPPAVPQTFQVAHLHAPTGSGKSTKVPAAYAAQGYKVLVLNPSVAATLGFGAYMSKAHGIDPNIRTGVRTITTGAPITYSTYGKFLADGGCSGGAYDIIICDECHSTDSTTILGIGTVLDQAETAGARLVVLATATPPGSVTVPHPNIEEVALSSTGEIPFYGKAIPIETIKGGRHLIFCHSKKKCDELAAKLSGLGLNAVAYYRGLDVSVIPTSGDVIVVATDALMTGFTGDFDSVIDCNTCVTQTVDFSLDPTFTIETTTVPQDAVSRSQRRGRTGRGRMGIYRFVTPGERPSGMFDSSVLCECYDAGCAWYELTPAETSVRLRAYLNTPGLPVCQDHLEFWESVFTGLTHIDAHFLSQTKQAGDNFPYLVAYQATVCARAQAPPPSWDQMWKCLIRLKPTLHGPTPLLYRLGAVQNEVTTTHPITKYIMACMSADLEVVT |  | 5.3 nM/min | approximately 1 nM/min | 5.9 ± 1.4 nM | 126 s⁻¹ | 3.1 ± 0.1 s⁻¹ | 17% | 0.35 ± 0.01 nM | 47 ± 5 nM | much greater ATP-independent unwinding than NS3h KDA or NS3h DDDD
NS3h KDA: purified NS3 helicase domain with D543K/H545D/Q549A mutations (protein) AVDFVPVESMETTMRSPVFTDNSSPPAVPQTFQVAHLHAPTGSGKSTKVPAAYAAQGYKVLVLNPSVAATLGFGAYMSKAHGIDPNIRTGVRTITTGAPITYSTYGKFLADGGCSGGAYDIIICDECHSTDSTTILGIGTVLDQAETAGARLVVLATATPPGSVTVPHPNIEEVALSSTGEIPFYGKAIPIETIKGGRHLIFCHSKKKCDELAAKLSGLGLNAVAYYRGLDVSVIPTSGDVIVVATDALMTGFTGDFDSVIDCNTCVTQTVDFSLDPTFTIETTTVPQDAVSRSQRRGRTGRGRMGIYRFVTPGERPSGMFDSSVLCECYDAGCAWYELTPAETSVRLRAYLNTPGLPVCQDHLEFWESVFTGLTHIKADFLSATKQAGDNFPYLVAYQATVCARAQAPPPSWDQMWKCLIRLKPTLHGPTPLLYRLGAVQNEVTTTHPITKYIMACMSADLEVVT |  | 5.7 nM/min |  | 2.6 ± 0.8 nM | 108 s⁻¹ | 3.7 ± 0.1 s⁻¹ |  | 0.21 ± 0.01 nM | 38 ± 4 nM | 
